# Data as given in patent US20100154070.
# Test system: piggyBac transposase (PBase) (Trichoplusia ni)
# Experiment: cell_activity
substance,measurement,setting,value
PB[Act-RFP] donor transposon (PBL/PBR termini),activity (% transposon single-positive founders),"mouse pronuclear co-injection with Act-PBase, 10.4% without helper, precise excision in male germline shown with Prm1-PBase (p230)",34.8
"PB[K14-Tyr, Act-RFP] donor transposon",activity (% founders with transposition),"mouse, 26/31 founders, Act-PBase",83.9
PB[PGK-neo] donor transposon (PBL/PBR termini),activity,"mouse W4/129S6 ES cells, Act-PBase helper, scale: fold drug-resistant clones vs donor alone",50
PB[SV40-neo] donor transposon (PBL/PBR termini),activity,"human 293 cells, CMV-PBase helper, scale: fold G418-resistant clones vs donor alone",10
